Experiment: yeast display, Sf9 membrane polyspecificity reagent, FACS + sequencing; frameworks hold sequencing errors
In short: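 Nanobodies from a synthetic yeast display library (Saccharomyces cerevisiae BJ5465), induced 36–48 hours with galactose, were stained 1 hour at 4 °C with 10% biotinylated, detergent-solubilized Sf9 membrane reagent, enriched on streptavidin microbeads, then FACS-sorted. Anti-HA (expression) and streptavidin (reagent binding) fluorescence set low and high (top ~1%) gates. Polyreactivity labels come from the gate of origin. Genes were colony-PCR amplified, MiSeq 2 × 250 sequenced and filtered by CDR length.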

Sequence | polyreactivity (PSR sort gate)
QVQLVESGGGLVQAGGSLRLSCAASGSIFGWYVMGWYIQAPGKERELVAAISSVGSTYYADSVKGRFTISRDNAKNTVYLQMKSLKPEDTAVYYCAKLRYPYLFWDDSEYWGQGTQVTVSS | low polyreactivity
QVQLVESGGGLVQAGGSLSLSCAASGFIFHFNAMGWYIQAPGKEREVVAAISRTGGTTYYADSVKGRFTLSRDNAKNTVYLQMNSLKPEVTAVYYCAAYSTYGQHYDYWGQGTQVTVSS | high polyreactivity
QVQLVESGGGLVQAGGSLRLSCAASGFIFWEYAMGWYRQAPGKERELVAAISTSGGSTYYADSVKGRFTISRDNAKNTVYLQMISLKPEDTAVYYCAVDGWDDTYFRQDMDYWGQGTQVTVSS | low polyreactivity
QVQLVESGGGLGQAGGSLRLSCAASGFTIIYYAMGWYRQAPGKERELVAAISRRGGRTYYADSVKGRFTISRDNAKNTVYLQMNSLKPEDTAVYYCAADGSGTSISYRYKHDYWGQGTQVTVSS | high polyreactivity
QVQLVESGGGLVQAGGSLRLRCAASGITLVDYAMGWNRQAPGKERELVAAITTGGSTNYADSVKGRFTISRDNAKNTVYLQINSLKPEDTAVYYCNKRAVILYDYWGQGTQVTVSS | low polyreactivity
QLQLVESGGGLVQAGGSLRLSCAASGSTFPLYAMGWYRQSPGKERELVASITTGGGNTYYADSVKGRFTISRDNAKNTVYLKMNSLKPEDTAVDYCAKPYHIGLSGRRTYDYWGQGTQVTVSS | high polyreactivity
QVQLVESGGGLVQAGGSLRLSCAASGNIFGWNDMGWCRQAPGKEWEVVAAISWTGDSTYDADSVKGRFTISRDNAKNTVYLQMNSLKPEDTAVYYGAADTPTLQYLTPRSEFDAWGQGTQVTVSS | low polyreactivity
QVQLVESGGGLVQAGGSLRLSCAASGRIFWDIDMGWYRQAPGKEWELVAAISRRGGSTSYADSVKGRFTISRDNAKTTVYLQINSLKPEDTAVYYCNVRTRWTRVRRYDYWGQGTQVTVSS | high polyreactivity
QVQLVESGGGLVQAGGSLRLSCAASGSTFRVNVMGWYRQAPGKERELVAAITTSGGSTYYADSVKGRFTISRDNAKNTVYLQMNSLKPEDTAVYYCAAEGGFSPQPYNLYYATPREDYWGQGTQVTVSS | low polyreactivity
QVQLVESGGRLVQAGGSLRLSCAASGLTFVYNTMGWYSQAPGKERKLVAAISSSGGTTYYADSVKGRFTISRDNAKNTVYLQMNSLKPEDTAVYYCAARPSGGYESTRTRDYWGQGTQVTVSS | low polyreactivity
QVQLVESGGGLVQAGGSLRLSCAASGYTFRSYAMGWYRQAPGKEREFVASISSSGGSTYYADSVKGRFTISRDNAKNTVYLQMNSLKPEDTAVYYCAASVGSYPYDEYDYWGQGTQVTVSS | low polyreactivity
QVQLVESGGGLVQAGGSLRLSCAASGRTFGSYGMGWYRQAPGKERELVAAISRSVGSTYYADSVKGRFTISRDNAKNSVYLQMNSLKPEDTAVYYCAVLNHRSFRYTSYYYWGQGTLVTVSS | high polyreactivity
QVQLVESGGGLVQAGGSLRLSCAASGRTFRYNRMGWYRQAPGKERELVAAITGGGSTYYADSVKGRFTISRDNAKNTVYLQMNSLKPEDTPVYYCAKRRWYRYDYWGQGTQVTVSS | high polyreactivity
QVQLVESGGALDQAGGSLRLSCAASGSTFVVNAMGWYIQAPGKERELVAGITTSGGSTYYADSVKGRFTISRDNAKTTVYLQMNSLKPEDTAVYYCAARRWPYVYRFRAYSGFDYWGQGTHVTVSS | low polyreactivity
QVQLVESGGGLVQAGGSLRLSCAASGIIFGRYAMGWYRQAPGKERELVATSSRGGGRTYYADSVKGRFTISRDNAKYTVYLLMNSLIPEDTAVYYCASYFYRGGLDSWGQGTQVTVSS | high polyreactivity
QVQLVESGGGLVQAGGSLRLSCAASGRIFHGYAMGWYRQAPGKERELVAAISSGGRTNYADSVKGRFTISRDNAKNTVYLQMNSLKPEDTAVYYCAAETQWYVRSRTLFYRYDYWGQGTQVTVSS | high polyreactivity
QVQLVESGGGLVQAGGSLRLSCAASGSIFLYYAMGWYRQAPGKERELVATIRGSGSSTYYADSVKGRFTISRDNAKNTVYLQMNSLKPEDTAVYYCAAKGYRWFRHGGYYFKFDYWGQGTQVTVSS | high polyreactivity
QVQLVESGGGLVQAGRSLRLSCAASGRIFKYNAMGWYRQAPGKERELVAVITSGGSTYYADSEKGRFTISRDNAMNTDSLQKNSLKQVDTAVYYCNSPYARYYTRYSAYDYWGQGTQVTVSS | low polyreactivity
QVQLVESGGGLVQAGGSLRLSCAASGSTIDGYAMGWYRQAPRKERELVAAITFDGSSTYYADSVKGRFTISRDNAKNTVYLQMNSLKPEVTAVYYCAAASSYWVLWDDYWGQGTQVTVSS | low polyreactivity
QVQLVESGGRLVQAGGSLRLSCAASGITFYLNAMGWYRQAPGKERELVADITVSGGSTYYADSVKGRFTISRDNAKNTVYLQMNSLKPEDTAVYYCAADLTISYSQEYYYWGQGNQVTVSS | low polyreactivity
QVQLVESGGGLVQAGGSLRLSCAASGSTFGKYAMGWYRQAPGKERELVAAITTGGNTYYADSVKGRFTISRDNAKNSVYLQMNSLKPEDTAVYYCNAKRSFRVDYWGQGTQVTVSS | low polyreactivity
QVQLVESGGGLVQAGGSLRLSCAASGSIFNYYALGWYRQAPGKEREFVADISGSGSSTYYADSVKGRFTISRDNAQNTVYLQMNSLKPEDTAVYYCNAEYYWGVGYYPYSDYGYWGQGTQVTVSS | low polyreactivity

Sequence | polyreactivity (PSR sort gate)
QVQLVESGGGLVQAGGSLRLSCAASGRIFTWYGMGWYSQAPGKERELVARITQRGGTTYYADSVKGRFTISRDNAKNTVYLQINSLKPEDTAFYYCATQYTYTGRRYYSYVDGSRYYYWGQGTQVTVSS | high polyreactivity
QAQLHESAGGLVQAGGCLRLSCAASGYFSKKWGMGWYRKAPGKERELVATIAKGASTYYADSMKGRFTISRDNAKYTMYRQMNSLKPEDTAVYYCGATQQDDQGLGYWGQDTQVTVSS | high polyreactivity
QVQLVESGGGLVQAGGSLRLSCAASGFIFPYYAMGWYRQAPGKERELVAAILTGGSTYYADSVKGRFTISRDNAKNTVYLQMNSLKAEDSAVYYCAARRKYDPNYYWGQGTQVTVSS | high polyreactivity
QVQLEESWGGLVQAGGSLRLSCAASGRTFDTYAMGWNRQAPGKERELVAAITSGGSTYYADSVKGRFTISRDNAKNTVYLQMNSLKPEDTAVYYCAVSGQLYAYRYGYWGQGTQVTVSS | low polyreactivity
QVQLVESGGGLVQAGGSLRLSCAASGRTFSINAMGWYSQAPGKERELVAAISYTGGSTYYADSVKGRFTISRDNAKNTVYLQMNSLKPEDTAVYYCAASSSRTYYGRYYYWGQGTQVTVSS | high polyreactivity
QVQLVDSGGGLVQAGGRLRLSCAASGSTFGHNAMGWYRQAPGKERQLLAAISRSGGITYYADSVKGRFTISRDNAKNTVYLQLNSLKPEDTAVYYCAADAWFSLRYAPRSYAYGYWGQGTQVTVSS | low polyreactivity
QVQLVESGGGLVQAGGSLRLSCAASGSTFFGNTMGRYRQAPGKERELVAAISRRGGSTYYADSVKGRFTISRDNAKNTVYLQMNSLKPEDTAVYYCAKYYHSGGYTPGKYDYWGQGTQVTVSS | high polyreactivity
QVQLVESGGGLVQAGGSLRLSCAASGSTLVTYTMGWYRQAPGKERELVASISWRGGSTYYADSVKGRFTISRDNAKNTVYLQMNSLKPEDTAVYYCNAVYYLWDYDYWGQGTQVTVSS | low polyreactivity
QVQLLESGGGLVQAGGSLRLSCAPSGRTFVFNGRGWYRPATAKERELVAAINRSGGSTYYAVSVKGRFTISRDNGKNTVYLQMNSLKPEDTAVYYCLIQHNGLGYWGQGTQVTVSS | low polyreactivity
QVQLVESGGGLVQAGGSLRLSCAASGFTFRYNAMGWYRQAPGKERELVAAITNGGSTYADSVKGRFTISRDNAKNTVYLQMNSLKPEDTAVYYCAADYFVLTYYLWCYSPYKSFYYWGQGTQVTVSS | low polyreactivity
QGQLVESGGGLVQAGGSLRLSCAASGFIFYKNAMGWYRQAPGKARELVAAITWSGGSTYYADSVKGRFTISRDNAKNTVYLQMNSLKPEDTAVYYCAAGVTWISWVWYDYWGQGTQVTVSS | low polyreactivity
QVQLVESGGVLDPAGGSLRLSCAASGSTFISNAMRWYRQAPGKERELVATITYSDATTYYADSVKGRFTISRDNAKNTVYLQMNSLKPEDTAVYYCNTRFFRPLWGYNYWGQGTQVTVSS | low polyreactivity
QVQLVESGGGLVQAGGSLRLSCAASGFTFSKYAMGWYRQAPGKERELVAGITWSGGRTYYADSVKGRFTISRDNAKNTVYLQLNSLIPDDSAVYYCAADPVWGRYIKYDYWGQGTQVTVSS | high polyreactivity
QVQLVESGGGLVQAGGSLRLSCAASGNIFRVYDMGWYRQAPGKERELVATITSGGRTYYADSVKGRFTISRDNAKNTVYLQMNSLKPEDTAVYYCNVDVKGRPTFWSPFGRFDYWGQGTQVTVSS | high polyreactivity
QVQLVESGGGLVQAGGSLRLSCAASGRIFYKNVMGWYRQAPGKESELVATITRRGGRTFYADSVKGRFTISRDNAKNTVYLQMNSLKPEDTAVYYCATRRRIRSSFYYDIDYWGQGTQVTVSS | high polyreactivity
QVQLVESGGGLVQAGGSLRLSCAASGSTFSPYAMGWYRQAPGKERELVAAITSSGGSTYYADSVKGRFTISRDNAKNTVYLQMNSLKPEDTAVYYCAAEGYYTSTYDLYDYYWGQGTQVTVSS | low polyreactivity
QVQLVESGGGSVQAGGSLRLSCAASGRTFYGYAMGWYRQAPGKERELGASISRDGSTNYADSVKGRFTISRDNAKNTVYLQMTSLKPEDTAVYYCAADIWYYRYPIYYYSYDYWGQGTQVNVSS | low polyreactivity
QVQLVESGGGLVQAGGSLRLSCAASGSTFTAYAMGWYRQAPGKERELVAAISKRSGGTYYADSVKGRFTISRDNAKNTVYLQMNSLKPEVTAVYYCGQGTQVTVSS | low polyreactivity
QVQLVESGGGLVQAGGSLRLTCAASGSIFWDNAMGWYRQAPGKERALFAAITSSGGSTHYADSVKGRFTISRDNAKNTVYLQMYSLKPEDTAVYYCAARRYYGVYYAFLYWGQGTQVTVSS | high polyreactivity
QVQLVESGGGLVQAGGSLRLSCAASGRILPLYAMGWYRQAPGKDRELVALIDSGGSTNYADSVKGRFTISRDNAKNTVYLQMNSLKPEDTAVYYCAAVVTAQAYAYFTYGYDYWGQGTQVTVSS | low polyreactivity
QVQLVESGGGLVQAGGSLRLSCAASGSTILHYAMGWYRQAPGKEREFTYYADSVKGRFTISRDNAKNTVCLQMNSLTPEDTAVYYCNADPAVSGGSIATDEYDYWVQGTQVTVSS | low polyreactivity
